Assays:
mVirD2 [1] = target: T1, mVirD2 (Agrobacterium tumefaciens (from …, UniProt P06668 1-204)); assay: EMSA; apparent Kd; 1 mM Mg2+; covalent conjugation; Conjugation/EMSA: TKM buffer (50 mM Tris-HCl pH 8, 150 mM KCl, 1 mM MgCl2, 10% glycerol), 37 C, 1 h, 10% native PAGE; HER2 beads: PBS, room temperature, 15 min; details: protein: recombinant; tags: N-terminal 6xHis; label: 3' Cy3
T1 sequence: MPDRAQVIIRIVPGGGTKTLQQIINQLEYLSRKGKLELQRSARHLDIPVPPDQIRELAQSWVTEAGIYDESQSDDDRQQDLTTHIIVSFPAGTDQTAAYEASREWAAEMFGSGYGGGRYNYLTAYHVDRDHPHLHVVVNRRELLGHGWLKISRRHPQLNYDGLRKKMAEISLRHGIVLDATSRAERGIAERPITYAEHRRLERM

HER2 = HER2 (UniProt P04626 23-652); assay: bead pull-down, GFP fluorescence; aptamer conjugated to mVirD2-GFP; PBS, room temperature; Conjugation/EMSA: TKM buffer (50 mM Tris-HCl pH 8, 150 mM KCl, 1 mM MgCl2, 10% glycerol), 37 C, 1 h, 10% native PAGE; HER2 beads: PBS, room temperature, 15 min; details: protein: commercial; tags: Fc; label: GFP (via conjugated protein)
mVirD2 [2] = target: T1, mVirD2; assay: EMSA; 1 mM Mg2+; higher conjugate yield than T1; Conjugation/EMSA: TKM buffer (50 mM Tris-HCl pH 8, 150 mM KCl, 1 mM MgCl2, 10% glycerol), 37 C, 1 h, 10% native PAGE; HER2 beads: PBS, room temperature, 15 min; details: protein: recombinant; tags: N-terminal 6xHis; label: 3' Cy3
mVirD2 [3] = target: T1, mVirD2; assay: EMSA; non-covalent; no nicking; Conjugation/EMSA: TKM buffer (50 mM Tris-HCl pH 8, 150 mM KCl, 1 mM MgCl2, 10% glycerol), 37 C, 1 h, 10% native PAGE; HER2 beads: PBS, room temperature, 15 min; details: protein: recombinant; tags: N-terminal 6xHis; single-stranded
mVirD2-GFP = target: T2, mVirD2-GFP (Agrobacterium tumefaciens (from …, UniProt P06668 1-204)); assay: denaturing PAGE shift; covalent conjugate; Conjugation/EMSA: TKM buffer (50 mM Tris-HCl pH 8, 150 mM KCl, 1 mM MgCl2, 10% glycerol), 37 C, 1 h, 10% native PAGE; HER2 beads: PBS, room temperature, 15 min; details: protein: recombinant; tags: N-terminal 6xHis
T2 sequence: T1 sequence

mVirD2 [4] = target: T1, mVirD2; assay: denaturing PAGE and SDS-PAGE shift; covalent conjugate; Conjugation/EMSA: TKM buffer (50 mM Tris-HCl pH 8, 150 mM KCl, 1 mM MgCl2, 10% glycerol), 37 C, 1 h, 10% native PAGE; HER2 beads: PBS, room temperature, 15 min; details: protein: recombinant; tags: N-terminal 6xHis

Binder: GCTCAAATTACAACGGTATATATCCTGCCAGTCAG (ssDNA) [T1 (VirTarget)]
- Kd (mVirD2 [1]): 468 ± 68 nM

B1: HeA2_3 aptamer, nicked and conjugated to mVirD2-GFP (ssDNA)
DNA: CCAGTCAGTAGGGAAGAGAAGGACATATGATTCTAAAAGGATTCTTCCCAAGGGGATCCAATTCAAACAGC
modifications: 5' end covalently linked to mVirD2-GFP Tyr29
- binding result (HER2): binds

Binder: GCTCAAATTACAACGGTATATATCCTGCCAGTCAG (XNA, phosphorothioate bonds at underlined bases (underline lost in text)) [PS-T1VirTarget]
- binding result (mVirD2 [2]): binds

B2: ss Cut site RNA (mixed)
DNA: GCTCAAATTACAACGGTATATATCCTGCCAGTCAG
modifications: DNA-RNA chimera; AT-rich binding sequence is DNA, cut site is RNA (bold lost in text)
- binding result (mVirD2 [3]): binds

B3: MOSIC HeA2_3 with mVirD2 site (ssDNA)
DNA: GCTCAAATTACAACGGTATATATCCTGCCAGTCAGTAGGGAAGAGAAGGACATATGATTCTAAAAGGATTCTTCCCAAGGGGATCCAATTCAAACAGC
- binding result (mVirD2-GFP): binds
- binding result (mVirD2 [4]): binds

From publication PMC5737863, “Entirely enzymatic nanofabrication of DNA–protein conjugates”
